Assay results as given in article PMC3695229.

Target: human TGF-β2 (human)
Assay: SPR; Biacore 2000; biotinylated ligands immobilised on streptavidin-coated CM5 chip, TGFR-3-ZP variants as analytes; 25°C, HBS500 (10 mM HEPES pH 7.4, 500 mM NaCl, 3.4 mM EDTA, 0.005% P20); apparent affinities from equilibrium binding

Row | Kd [µM] | Binder
1 | 2.7 | TGFR-3-ZP(234) (domain or fragment, one remaining potential N-glycosylation site (N491)) REPEEVQGGVNIALSVKCDNEKMVVAVDKDSFQTNGYSGMELTLLDPSCKAKMNGTHFVLESPLNGCGTRHRRSAPDGVVYYNSIVVQAPSPGDSSGWPDGYEDLESGDNGFPGDTDEGETAPLSRAGVVVFQCSLRQLRSPSGFQDQLDGQATFNMELYNTDLFLVPSPGVFSVAENEHVYVEVSVTKADQDLGFAIQTCFISPYSNPDRMSDYTIIENICPKDDSVKFYSSKRVHFPIPHAEVDKKRFSFVFKSVFQTSLLFLHCELTLCSRNKGSQKLPKCVTPDDACTSLDATMIWTMMQNKKTFTKPLAVVLQVDYKENVPNMKESSPVPPPPQIFHGLD
2 | 2.4 | murine TGFR-3-ZP (recombinant ZP domain of TGF-β receptor type 3, residues 438-782, including the EHP) (domain or fragment, secretory glycoprotein; four potential N-glycosylation sites (positions 491, 570, 589 and 696)) REPEEVQGGVNIALSVKCDNEKMVVAVDKDSFQTNGYSGMELTLLDPSCKAKMNGTHFVLESPLNGCGTRHRRSAPDGVVYYNSIVVQAPSPGDSSGWPDGYEDLESGDNGFPGDTDEGETAPLSRAGVVVFNCSLRQLRSPSGFQDQLDGNATFNMELYNTDLFLVPSPGVFSVAENEHVYVEVSVTKADQDLGFAIQTCFISPYSNPDRMSDYTIIENICPKDDSVKFYSSKRVHFPIPHAEVDKKRFSFVFKSVFNTSLLFLHCELTLCSRNKGSQKLPKCVTPDDACTSLDATMIWTMMQNKKTFTKPLAVVLQVDYKENVPNMKESSPVPPPPQIFHGLD
